Three molecules from patent US20030215880A1 (Scripps Research, published 2003) can be followed below.

For test [1], the target named is T1, PrP^c, cellular isoform of the mouse prion protein (mouse, UniProt P04925 23-230). The experiment in a line: immunoprecipitation from normal mouse brain homogenate, western blot. A general note: In western blotting, separated proteins are transferred to a membrane and probed.
Test [2] has as its target T1, PrP^c, cellular isoform of the mouse …. The test can be described thus: immunoprecipitation from normal mouse brain homogenate, positive control.

T1 sequence (P04925 23-230 limits assumed): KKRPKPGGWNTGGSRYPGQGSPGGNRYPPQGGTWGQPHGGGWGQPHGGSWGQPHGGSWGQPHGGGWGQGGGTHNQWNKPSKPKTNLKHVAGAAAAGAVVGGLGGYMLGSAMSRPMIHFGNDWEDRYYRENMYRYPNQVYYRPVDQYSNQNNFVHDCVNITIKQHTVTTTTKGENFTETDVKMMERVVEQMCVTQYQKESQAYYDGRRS

B1: Fab b12 (Fab, V domains shown)
VH: QVQLVQSGAEVKKPGASVKVSCQASGYRFSNFVIHWVRQAPGQRFEWMGWINPYNGNKEFSAKFQDRVTFTADTSANTAYMELRSLRSADTAVYYCARVGPYSWDDSPQDNYYMDVWGKGTTVIVSS
VL: EIVLTQSPGTLSLSPGERATFSCRSSHSIRSRRVAWYQHKPGQAPRLVIHGVSNRASGISDRFSGSGSGTDFTLTITRVEPEDFALYYCQVYGASSYTFGQGTKLERKR
Take B1: the binding result in test [1] is on record as “no binding”.

B2: IgG1 b12 (antibody, V domains shown)
VH: QVQLVQSGAEVKKPGASVKVSCQASGYRFSNFVIHWVRQAPGQRFEWMGWINPYNGNKEFSAKFQDRVTFTADTSANTAYMELRSLRSADTAVYYCARVGPYSWDDSPQDNYYMDVWGKGTTVIVSS
VL: EIVLTQSPGTLSLSPGERATFSCRSSHSIRSRRVAWYQHKPGQAPRLVIHGVSNRASGISDRFSGSGSGTDFTLTITRVEPEDFALYYCQVYGASSYTFGQGTKLERKR
notes: Human IgG1
Take B2: in test [1], the binding result is listed as “no binding”.

B3: Fab D13 (Fab, V domains shown)
VH: VQLLEQSGAELVKPGASVKLSCTTSGLNIEDYYIHWVKQRPEQGLEWIGRIDPENGETLYAPEFQGKATITADTSSNTVYLQLRSLTSEDTAIYYCGRFDGNGWYLDVWGAGTTVTVSS
VL: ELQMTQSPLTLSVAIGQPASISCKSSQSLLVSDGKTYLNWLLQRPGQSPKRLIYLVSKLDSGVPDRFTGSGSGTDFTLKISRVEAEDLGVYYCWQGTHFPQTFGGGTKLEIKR
Consider B3, for which the binding result in test [2] is listed as “binds”.
